Values quoted from earlier work, collected in article PMC4569521.

How the values were obtained:
[1] = target: MuA recognition peptides (Escherichia phage Mu) (UniProt P07636)
[2] = target: MuA tetramer (Escherichia phage Mu) (UniProt P07636)
Chain of MuA tetramer (Escherichia phage Mu) (P07636 whole entry): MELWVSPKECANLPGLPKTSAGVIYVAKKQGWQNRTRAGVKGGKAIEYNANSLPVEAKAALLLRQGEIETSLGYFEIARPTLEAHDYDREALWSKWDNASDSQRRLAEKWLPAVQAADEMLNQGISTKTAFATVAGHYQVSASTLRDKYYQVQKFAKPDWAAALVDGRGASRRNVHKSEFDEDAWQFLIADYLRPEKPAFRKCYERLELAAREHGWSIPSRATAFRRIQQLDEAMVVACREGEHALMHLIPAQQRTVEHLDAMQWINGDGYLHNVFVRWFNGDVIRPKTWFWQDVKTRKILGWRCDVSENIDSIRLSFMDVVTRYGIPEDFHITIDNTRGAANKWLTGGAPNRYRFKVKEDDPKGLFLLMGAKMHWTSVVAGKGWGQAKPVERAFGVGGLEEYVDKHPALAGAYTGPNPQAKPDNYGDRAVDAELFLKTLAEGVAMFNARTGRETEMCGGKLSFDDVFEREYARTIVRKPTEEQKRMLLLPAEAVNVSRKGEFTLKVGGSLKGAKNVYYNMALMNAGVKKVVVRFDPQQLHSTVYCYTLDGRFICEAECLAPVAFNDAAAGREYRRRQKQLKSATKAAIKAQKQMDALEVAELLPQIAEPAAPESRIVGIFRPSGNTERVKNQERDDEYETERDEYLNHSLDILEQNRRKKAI

Chain of ClpX (P0A6H1 2-424): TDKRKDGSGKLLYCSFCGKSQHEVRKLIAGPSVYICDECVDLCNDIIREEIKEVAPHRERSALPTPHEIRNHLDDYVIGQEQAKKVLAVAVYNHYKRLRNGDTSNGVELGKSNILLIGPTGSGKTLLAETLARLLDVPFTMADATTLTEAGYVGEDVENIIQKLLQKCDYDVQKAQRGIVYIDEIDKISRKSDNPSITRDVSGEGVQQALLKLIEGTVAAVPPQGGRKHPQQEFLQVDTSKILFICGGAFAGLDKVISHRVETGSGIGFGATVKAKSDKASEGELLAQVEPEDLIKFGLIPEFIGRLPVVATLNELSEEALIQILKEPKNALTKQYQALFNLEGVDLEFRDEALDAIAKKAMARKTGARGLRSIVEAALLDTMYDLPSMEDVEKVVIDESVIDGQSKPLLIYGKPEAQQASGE
Chain of MuA recognition peptides (Escherichia phage Mu) (P07636 whole entry, looked up): as the sequence (P07636 whole entry) above

ClpX (from UniProt P0A6H1)
Kd [1]: > 70 µM | Kd [2]: 1000 nM
